The source of these data is article PMC6150488 (Cell reports, 2018).

In this experiment the target is glycogen-synthase kinase 3β (GSK3β) (UniProt P49841 1-420). In words: SPR. For orientation: Surface plasmon resonance follows binding to a sensor surface in real time, without labels.

B1: Nav1.6 C-terminal tail (domain or fragment)
chain: LENFSVATEESADPLSEDDFETFYEIWEKFDPDATQFIEYCKLADFADALEHPLRVPKPNTIELIAMDLPMVSGDRIHCLDILFAFTKRVLGDSGELDILRQQMEERFVASNPSKVSYEPITTTLRRKQEEVSAVVLQRAYRGHLARRGFICKKTTSNKLENGGTHREKKESTPSTASLPSYDSVTKPEKEKQQRAEEGRRERAKRQKEVRESKC
A word on the Kd: it is a measure of binding affinity in units of concentration. Read a high Kd as lower affinity. B1: the Kd was determined as 165 nM.
